Columns and labels:
[1] = target: T1, His-OpaR (Vibrio parahaemolyticus RIMD 2210633) (UniProt Q79YV4); assay: DNase I footprinting; settings: 1 mM MgCl2, 0.5 mM EDTA, 0.5 mM DTT, 50 mM NaCl, 10 mM Tris-HCl pH 7.5, 0.05 mg/ml poly(dI-dC), room temperature, 30 min; footprinting same buffer, then …
T1 sequence: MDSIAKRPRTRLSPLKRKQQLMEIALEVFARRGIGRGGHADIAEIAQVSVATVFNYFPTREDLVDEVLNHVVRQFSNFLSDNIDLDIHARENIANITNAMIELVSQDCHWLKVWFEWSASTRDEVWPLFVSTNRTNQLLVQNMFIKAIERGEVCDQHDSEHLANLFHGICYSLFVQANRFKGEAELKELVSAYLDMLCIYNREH

[2] = target: T1, His-OpaR (Vibrio parahaemolyticus RIMD 2210633); assay: EMSA; settings: 1 mM MgCl2, 0.5 mM EDTA, 0.5 mM DTT, 50 mM NaCl, 10 mM Tris-HCl pH 7.5, 0.05 mg/ml poly(dI-dC), room temperature, 30 min; footprinting same buffer, then …

| Sequence | binding [1] | binding [2] |
| --- | --- | --- |
| AACCGTGAAATCCATTTACTGAGGTATTTTTCCTCATTAATTAGCAGTATAGGGTAAAAATATGAAAGCTAATGGATAATCATAAAGTAGTAGTTGGTTTTTTGCTGAGAAAGTGATTAGTAGCAATGTAACAAGTGGCATATTTGCATGCTATTGCATTTTGCAAATGCAATTTGCGAAAGTGCTGGTTAATAATGCGTCG (double strand) [qrr4 promoter fragment] | binds | binds |
| AACTTCCAACCACATAATTGCGCAGCAAATAACCAGACATTTACACTACAAAAAACCCATAAAATACCAACAAATTAGAATTATTAACTACAAAATAACTCTATTGAGTATTATGTTAGTTTTTCAGGGTAATTTTGTCCTAGTATTCCACTTCATGCTTATTATTTATATACTACTTGCCTGCTGAGAGCTCATAAATCCAATCATACCTGCTCCAGCC (double strand) [aphA promoter fragment] | binds | binds |
| AGTGGTTGCTTATGAATCAATCCCAGGAAAAGGCGAGAACAGCGAACCTTCAACTCGTTAACATTTTATTTTCATTTACATTTTGACTAACTCAATTGTTAATAAATTACCTAAATTGCATTTTGAAATTGCAGAATGCAATTAAGTTTTGTTTTTTGCAAAAATTTATATAGGCAATATCAGTTTATATGAGATCTTGTGCCCAAAAATAAAGCTTTGAAAATTGGCATGATTAATGCATAATACTTCTCGACC (double strand) [qrr2 promoter fragment] | binds | binds |
| AGTGGGTTGAAAGTCACATCCTTTTGCGGAAAATTCTTGGGAGCGCTGCCAAATTTTCGAAAGTTTACAGCAAAACTTATCAATAATAATGACATTACTGTCTATAAATTATCCATCAGATGTTGACCTTGTGCATATGCACCATTACACTCATCACTGCTTAAAGCAATTATTAAAATAATCAATTAGGGGGTTACCCCCAACAACAACTCAAATGGCAAGGAAAATGGATATGGACTCAATTGCAAAGAGACCTAGAACTAGGC (double strand) [opaR promoter footprinting fragment] | binds |  |
| GGATAAGTTCAAATTGGATCCAGCCTTAGCAGGCTCGGTTATTCTAACGACAGTGACAGATGTGGTTGGTTTTTTCGCCTTTTTGGGAACGGCGAGTTTAGTCATGCTCTAAAAAGTCCACTGTTTATTAATCAATCATTAGCATAATAGAGACAAATTGCATAACGCACTTGCAAATTGCAAAAACATTCAAAGTTTAAGCAACGTATGTCACAGAAACCAC (double strand) [qrr3 promoter fragment] | binds | binds |

Source: publication PMC3323551
